The results in this text go back to patent US20200095336A1.

The target in assay [1] is midgut brush-border membrane vesicle protein BBMV of Plutella xylostella. Description: competitive ELISA on coated BBMV; Cry1Ac varied against CCL-CCL_scFv (competitor, detected by its His tag). In general terms: An ELISA detects its analyte on a solid surface through an enzyme-linked reagent.
Assay [2] shares this target. Description: BLI (Octet), BBMV coated on APS biosensor, analyte at 4, 2, 1 and 0.5 µM. In general terms: BLI is a label-free optical method that tracks binding on a fibre tip over time.
The target is the same in assay [3]. Description: competitive ELISA on coated BBMV; Cry1Ab varied against CCL-CCL_scFv (competitor, detected by its His tag).
Assay [4] shares this target. Kind of assay: ELISA on coated BBMV, anti-His-tag HRP.

Some results are limits rather than exact numbers.

One may read the IC50 as the concentration needed to halve the response being measured. For Bt toxin Cry1Ac (ligand), in assay [1], the IC50 came to 1.7 µg/mL and the inhibition rate was found to be 90%.

Usually Kd stands for the constant that tells how readily two partners part at equilibrium. A higher Kd goes with lower affinity. As to Bt toxin Cry1Ab (ligand), in assay [2], the dissociation constant (Kd) was found to be 127 nM. For the same molecule, the half-maximal inhibitory concentration (IC50) in assay [3] is 3.02 µg/mL.

B1: human-derived molecularly modified insecticidal protein CCL-CCL_scFv (scFv)
scFv: MATDIQMTQSPSSLSASVGDRVTITCRASQSISSYLNWYQQKPGKAPKLLIYAASRLQSGVPSRFSGSGSGTDFTLTISSLQPEDFATYYCQQTSHPPLTFGQGTKVEIKRSSGGGGSGGGGSGGGGSTDIQMTQSPSSLSASVGDRVTITCRASQSISSYLNWYQQKPGKAPKLLIYAASRLQSGVPSRFSGSGSGTDFTLTISSLQPEDFATYYCQQTSHPPLTFGQGTKVEIKR
For the molecule B1, in assay [4], the OD450 was above 3 OD450. In assay [2], this molecule showed a Kd of 41.6 nM.
